Reference: article doi:10.1101/2020.05.04.077941 (bioRxiv, 2020)

Target: purified human recombinant HGF (human, UniProt P14210 32-728)
Assay: far-Western, overlay or dot blot

Sequence of purified human recombinant HGF (P14210 32-728): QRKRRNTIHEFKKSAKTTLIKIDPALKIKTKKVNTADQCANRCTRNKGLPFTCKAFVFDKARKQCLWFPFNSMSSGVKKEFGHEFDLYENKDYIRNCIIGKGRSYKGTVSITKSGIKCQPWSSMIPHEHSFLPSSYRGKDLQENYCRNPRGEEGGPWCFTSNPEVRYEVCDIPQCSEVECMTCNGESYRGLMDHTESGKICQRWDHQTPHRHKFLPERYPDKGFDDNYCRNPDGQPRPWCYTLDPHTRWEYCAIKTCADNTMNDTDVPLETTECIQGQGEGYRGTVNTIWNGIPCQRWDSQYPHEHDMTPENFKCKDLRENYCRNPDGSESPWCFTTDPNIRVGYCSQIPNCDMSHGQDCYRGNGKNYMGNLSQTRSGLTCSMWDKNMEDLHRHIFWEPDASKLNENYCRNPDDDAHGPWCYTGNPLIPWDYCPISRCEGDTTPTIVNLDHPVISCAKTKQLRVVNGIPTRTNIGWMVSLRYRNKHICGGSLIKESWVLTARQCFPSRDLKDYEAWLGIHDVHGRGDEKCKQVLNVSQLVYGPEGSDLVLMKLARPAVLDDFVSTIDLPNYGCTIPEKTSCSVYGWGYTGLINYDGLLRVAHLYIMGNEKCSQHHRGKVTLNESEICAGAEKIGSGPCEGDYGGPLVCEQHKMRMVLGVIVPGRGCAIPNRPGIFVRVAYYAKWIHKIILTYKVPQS

QEGERVVFTCQATANPEIL [NEPH1-P1 peptide]
binding result: binds

PDITILLSGQTISDISANVNEGSQQKL [NEPHRIN-P1 peptide]
binding result: binds
